Experiments:
[1] = target: HRV14-NimII-XXX17AA library (Human rhinovirus 14; influenza type A virus) (UniProt P03303); experiment: cell-based or functional assay
[2] = target: HRV14-NimII-XXX23AA library (Human rhinovirus 14; influenza type A virus) (UniProt P03303); experiment: cell-based or functional assay

“anti-M2e Mab 14C2 (Abcam, Inc; Cat# ab5416) (antibody)” showed a Fifty-percent neutralization (PRNT) (reciprocal dilution of 1 mg/ml stock) [1] of 2e+06 and a Fifty-percent neutralization (PRNT) (reciprocal dilution of 1 mg/ml stock) [2] of 2e+06.
